Measured values as given in patent US20190153111A1.

What was measured:
[1] = biological target: Human FcγRIIIA 158F (human) (UniProt P08637); experiment: SPR (T100), biotinylated receptor on streptavidin chip, equilibrium binding, 1:1 model
[2] = biological target: Human FcγRIIIA 158V (human) (UniProt P08637); experiment: as above
Human FcγRIIIA 158V (human), sequence (P08637 other isoform, or with tags, fused parts or gaps): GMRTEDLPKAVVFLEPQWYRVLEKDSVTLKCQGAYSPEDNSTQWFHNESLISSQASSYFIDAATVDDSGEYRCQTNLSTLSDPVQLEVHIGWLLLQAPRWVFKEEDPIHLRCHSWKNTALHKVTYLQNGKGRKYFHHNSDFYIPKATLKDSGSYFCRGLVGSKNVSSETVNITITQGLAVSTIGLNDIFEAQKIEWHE

Human FcγRIIIA 158F (human), sequence (P08637 17-199 limits assumed): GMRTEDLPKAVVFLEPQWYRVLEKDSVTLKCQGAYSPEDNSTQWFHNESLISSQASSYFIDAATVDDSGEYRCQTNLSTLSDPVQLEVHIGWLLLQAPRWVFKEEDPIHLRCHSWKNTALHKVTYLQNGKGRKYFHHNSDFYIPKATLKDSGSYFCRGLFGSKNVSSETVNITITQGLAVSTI

Ka [1]: 699000 M⁻¹
Ka [2]: 1.72e+06 M⁻¹
Substance: HCD122 (antibody)
